Measurements: PMC2148126
Where two headings read alike, the source gives them in different places.

Experiments:
[1] = molecular target: Alf1p-myc (S. cerevisiae) (UniProt P53904); test: co-IP
[2] = molecular target: Alf1p-myc (S. cerevisiae) (UniProt P53904); test: co-IP; remark: listed apart in the source

UniProt P53904, sequence (P53904 whole entry): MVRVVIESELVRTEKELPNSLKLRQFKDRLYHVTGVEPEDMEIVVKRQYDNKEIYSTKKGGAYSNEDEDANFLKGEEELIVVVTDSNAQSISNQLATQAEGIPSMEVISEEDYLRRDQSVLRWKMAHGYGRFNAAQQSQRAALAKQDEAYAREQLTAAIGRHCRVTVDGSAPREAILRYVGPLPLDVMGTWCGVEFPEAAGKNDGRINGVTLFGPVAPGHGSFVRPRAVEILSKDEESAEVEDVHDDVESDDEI

- ratio of α-tubulin to β-tubulin precipitated [1]: 20 fold
- ratio of α-tubulin to β-tubulin precipitated [2]: 2 fold
Substance: α-tubulin, endogenous in yeast extract (from UniProt P09733 1-447) (natural protein)
